Results reported in US20240392020A1 (JIANGSU HENGRUI PHARMACEUTICALS, published 2024).
Where two headings read alike, the source gives them in different places.

T1: CEA on MKN45 cells (UniProt P06731 35-685)
T1 construct: whole, on cells
T1 sequence (looked up): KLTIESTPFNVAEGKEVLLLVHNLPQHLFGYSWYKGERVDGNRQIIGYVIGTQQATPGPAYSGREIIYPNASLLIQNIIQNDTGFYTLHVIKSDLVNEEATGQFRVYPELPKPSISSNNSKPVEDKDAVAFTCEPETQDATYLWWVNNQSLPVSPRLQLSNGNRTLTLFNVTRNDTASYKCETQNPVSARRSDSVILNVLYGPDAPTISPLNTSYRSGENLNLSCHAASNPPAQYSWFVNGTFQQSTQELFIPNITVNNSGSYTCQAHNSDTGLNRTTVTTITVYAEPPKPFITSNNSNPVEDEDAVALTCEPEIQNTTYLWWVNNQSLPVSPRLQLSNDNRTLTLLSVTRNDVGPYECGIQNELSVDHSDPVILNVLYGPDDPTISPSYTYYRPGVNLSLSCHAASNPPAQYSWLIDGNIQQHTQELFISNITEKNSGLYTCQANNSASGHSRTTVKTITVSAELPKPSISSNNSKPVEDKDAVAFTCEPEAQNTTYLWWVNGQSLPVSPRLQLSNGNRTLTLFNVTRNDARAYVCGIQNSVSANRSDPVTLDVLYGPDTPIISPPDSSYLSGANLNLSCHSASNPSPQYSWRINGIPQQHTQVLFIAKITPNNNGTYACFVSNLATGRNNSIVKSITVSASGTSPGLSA

T2: hP40 (human, UniProt P29460 23-328)
T2 construct: bought
T2 sequence (looked up): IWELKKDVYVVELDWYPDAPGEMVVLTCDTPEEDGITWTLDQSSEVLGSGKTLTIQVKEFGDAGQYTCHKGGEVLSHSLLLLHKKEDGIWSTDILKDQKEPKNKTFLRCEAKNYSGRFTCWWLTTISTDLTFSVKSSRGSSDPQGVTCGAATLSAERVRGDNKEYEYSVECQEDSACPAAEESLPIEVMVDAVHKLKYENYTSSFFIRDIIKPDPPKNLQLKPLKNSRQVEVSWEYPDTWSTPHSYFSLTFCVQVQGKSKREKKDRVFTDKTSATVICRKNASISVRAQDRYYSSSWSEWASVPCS

B1: N3 (antibody)
heavy: not shown
light: EIVLTQSPGTLSLSPGERATLSCRASQNINNRFLAWYQQRPGQAPRLLIYAASSRATGVPDRFSGSGSGTDFTLTISRLEAEDFAMYHCQQYGSFPRTFGQGTMVDIKSGAPRFLTRPKAFVVSVGKDATLSCQIVGNPTPQVSWEKDQQPVAAGARFRLAQDGDLYRLTILDLALGDSGQYVCRARNAIGEAFAAVGLQVDAEA
B2: N4 (antibody)
heavy: not shown
light: EIVLTQSPGTLSLSPGERATLSCRASQNINNRFLAWYQQRPGQAPRLLIYAASSRATGVPDRFSGSGSGTDFTLTISRLEAEDFAMYHCQQYGSFPRTFGQGTMVDIKQGSPPCFLRFPRPVRVVSGAEAELKCVVLGEPPPVVVWEKGGQQLAASERLSFPADGAEHGLLLTAALPTDAGVYVCRARNAAGEAYAAAAVTVLEPP
B3: J0 (antibody, human IgG1, lambda)
heavy: not shown
light: SYELTQPLSVSVALGQTARITCSGDNIGSKYVHWYQQKPGQAPVLVIYGDNERPSGIPERFSGSNSGNTATLTISRAQAGDEADYYCQAADWVDFYVFGGGTKLTVLGQPKAAPSVTLFPPSSEELQANKATLVCLISDFYPGAVTVAWKADSSPVKAGVETTTPSKQSNNKYAASSYLSLTPEQWKSHRSYSCQVTHEGSTVEKTVAPTECS
B4: J2 (antibody)
heavy: not shown
light: SYELTQPLSVSVALGQTARITCSGDNIGSKYVHWYQQKPGQAPVLVIYGDNERPSGIPERFSGSNSGNTATLTISRAQAGDEADYYCQAADWVDFYVFGGGTKLTVLFDPVYKVKPNPPHNLSVINSEELSSILKLTWTNPSIKSVIILKYNIQYRTKDASTWSQIPPEDTASTRSSFTVQDLKPFTEYVFRIRCMKEDGKGYWSDWSEEASGIT
B5: J3 (antibody)
heavy: not shown
light: SYELTQPLSVSVALGQTARITCSGDNIGSKYVHWYQQKPGQAPVLVIYGDNERPSGIPERFSGSNSGNTATLTISRAQAGDEADYYCQAADWVDFYVFGGGTKLTVLGIPPKIEALPSDISIDEGKVLTVACAFTGEPTPEVTWSCGGRKIHSQEQGRFHIENTDDLTTLIIMDVQKQDGGLYTLSLGNEFGSDSATVNIHIRSI
B6: BU1 (bispecific antibody, human IgG1, lambda, L234A L235A)
heavy 1: not shown
light 1: SSELTQDPAVSVALGQTVRVTCQGDSLRSYYASWYQQKPGQAPVLVIYGKNNRPSGIPDRFSGSSSGNTASLTITGAQAEDEADYYCSSRDSSGNHWVFGGGTELTVLGQPKAAPSVTLFPPSSEELQANKATLVCLISDFYPGAVTVAWKADSSPVKAGVETTTPSKQSNNKYAASSYLSLTPEQWKSHRSYSCQVTHEGSTVEKTVAPTECS
heavy 2: EVQLVQSGAEVKKPGESLKISCKGSGYSFTTYWLGWVRQMPGKGLDWIGIMSPVDSDIRYSPSFQGQVTMSVDKSITTAYLQWNSLKASDTAMYYCARRRPGQGYFDFWGQGTLVTVSSGGGGSGIPPKIECLPSDISIDEGKVLTVASAFTGEPTPEVTWSTGGRKIHSQEQGRFHIESTEDLTTLIISDVQKQDGGLYSLSLGNEFGSDSATVNIHIRSIDKTHTCPPCPAPEAAGGPSVFLFPPKPKDTLMISRTPEVTCVVVDVSHEDPEVKFNWYVDGVEVHNAKTKPREEQYNSTYRVVSVLTVLHQDWLNGKEYKCKVSNKALPAPIEKTISKAKGQPREPQVCTLPPSREEMTKNQVSLSCAVKGFYPSDIAVEWESNGQPENNYKTTPPVLDSDGSFFLVSKLTVDKSRWQQGNVFSCSVMHEALHNHYTQKSLSLSPGK
light 2: DIQMTQSPSSLSASVGDRVTITCRASQGISSWLAWYQQKPEKAPKSLIYAASSLQSGVPSRFSGSGSGTDFTLTISSLQPEDFATYYCQQYNIYPYTFGQGTKLEIKGGGGSSGAPRFLTRPLSYVVSVGKDASLSSQIVGNPTPQVSWEKDQLPVTAGARFRLAQDGDLYRLKILDLQLSDSGQYVSRARNAIGEAFACVGLEVGAEA
B7: BU2 (bispecific antibody, human IgG1, kappa, L234A L235A)
heavy 1: not shown
light 1: not shown
heavy 2: QVQLQQSGAEVKKPGSSVRVSCKASGGTFNNNAINWVRQAPGQGLEWMGGIIPMFGTAKYSQNFQGRVAITADESTGTASMELSSLRSEDTAVYYCARSRDLLLFPHHALSPWGRGTMVTVSSGGGGSGIPPKIECLPSDISIDEGKVLTVASAFTGEPTPEVTWSTGGRKIHSQEQGRFHIESTEDLTTLIISDVQKQDGGLYSLSLGNEFGSDSATVNIHIRSIDKTHTCPPCPAPEAAGGPSVFLFPPKPKDTLMISRTPEVTCVVVDVSHEDPEVKFNWYVDGVEVHNAKTKPREEQYNSTYRVVSVLTVLHQDWLNGKEYKCKVSNKALPAPIEKTISKAKGQPREPQVCTLPPSREEMTKNQVSLSCAVKGFYPSDIAVEWESNGQPENNYKTTPPVLDSDGSFFLVSKLTVDKSRWQQGNVFSCSVMHEALHNHYTQKSLSLSPGK
light 2: SSELTQDPAVSVALGQTVRVTCQGDSLRSYYASWYQQKPGQAPVLVIYGKNNRPSGIPDRFSGSSSGNTASLTITGAQAEDEADYYCSSRDSSGNHWVFGGGTELTVLGGGGSDQPQFSGAPRFLTRPLSYVVSVGKDASLSSQIVGNPTPQVSWEKDQLPVTAGARFRLAQDGDLYRLKILDLQLSDSGQYVSRARNAIGEAFACVGLEVGAEA
B8: BU3 (bispecific antibody, human IgG1, kappa, L234A L235A)
heavy 1: not shown
light 1: B7 light 2
heavy 2: EVQLVQSGAEVKKPGESLKISCKGSGYSFTTYWLGWVRQMPGKGLDWIGIMSPVDSDIRYSPSFQGQVTMSVDKSITTAYLQWNSLKASDTAMYYCARRRPGQGYFDFWGQGTLVTVSSASTKGPSVFPLAPSSKSTSGGTAALGCLVKDYFPEPVTVSWNSGALTSGVHTFPAVLQSSGLYSLSSVVTVPSSSLGTQTYICNVNHKPSNTKVDKKVEPKSCDKTHTCPPCPAPEAAGGPSVFLFPPKPKDTLMISRTPEVTCVVVDVSHEDPEVKFNWYVDGVEVHNAKTKPREEQYNSTYRVVSVLTVLHQDWLNGKEYKCKVSNKALPAPIEKTISKAKGQPREPQVCTLPPSREEMTKNQVSLSCAVKGFYPSDIAVEWESNGQPENNYKTTPPVLDSDGSFFLVSKLTVDKSRWQQGNVFSCSVMHEALHNHYTQKSLSLSPGK
light 2: not shown
B9: BU4 (bispecific antibody, human IgG1, kappa, L234A L235A)
heavy 1: not shown
light 1: not shown
heavy 2: QVQLQQSGAEVKKPGSSVRVSCKASGGTFNNNAINWVRQAPGQGLEWMGGIIPMFGTAKYSQNFQGRVAITADESTGTASMELSSLRSEDTAVYYCARSRDLLLFPHHALSPWGRGTMVTVSSGGGGSKAGIRGIPPKIECLPSDISIDEGKVLTVASAFTGEPTPEVTWSTGGRKIHSQEQGRFHIESTEDLTTLIISDVQKQDGGLYSLSLGNEFGSDSATVNIHIRSIDKTHTCPPCPAPEAAGGPSVFLFPPKPKDTLMISRTPEVTCVVVDVSHEDPEVKFNWYVDGVEVHNAKTKPREEQYNSTYRVVSVLTVLHQDWLNGKEYKCKVSNKALPAPIEKTISKAKGQPREPQVCTLPPSREEMTKNQVSLSCAVKGFYPSDIAVEWESNGQPENNYKTTPPVLDSDGSFFLVSKLTVDKSRWQQGNVFSCSVMHEALHNHYTQKSLSLSPGK
light 2: B7 light 2

How the values were obtained:
CEA on MKN45 cells [1] = biological target: T1, CEA on MKN45 cells; test: FACS, MKN45 cells
CEA on MKN45 cells [2] = biological target: T1, CEA on MKN45 cells; test: FACS, MKN45 cells; remark: listed apart in the source
hTSLP = biological target: T3, hTSLP (human, UniProt Q969D9 29-159); test: ELISA
T3 construct: bought
Protocol: (§1) For an antibody targeting a soluble protein, the binding activity of the antibody against the soluble protein was detected by ELISA. […] After the blocking was completed, the blocking solution was discarded; and the plate was washed 3 times with a PBST buffer (pH 7.4, PBS containing 0.1% tween-20). 100 μL of the antibody solution diluted in a gradient was added to each well, and the mixture was incubated at 37° C. for 1 h. After the incubation was completed, the plate was washed 3 times with PBST. […] The plate was washed 3 times with PBST. […] The reaction was stopped by adding 50 μL of 1 M H₂SO₄ to each well. The absorbance values at 450 nm were read on a microplate reader, the binding curves of the antibodies to an antigen were fitted with software, and the EC₅₀ values were calculated.

hBAFF [3] = biological target: T4, hBAFF (human, UniProt Q9Y275 134-285); test: SPR Biacore T200, antibody captured on Protein A chip
T4 construct: bought
Protocol: (§2) The affinity of a test antibody for an antigen protein was determined by using a Biacore T200 (GE) instrument. […] The data obtained from the experiment was fitted with BIAevaluation version 4.1, GE software using a (1:1) Langmuir model to obtain affinity values.

hP40 [4] = biological target: T2, hP40; test: as above
Protocol: as §2

hBAFF [5] = biological target: T4, hBAFF; test: ELISA
Protocol: as §1

hP40 [6] = biological target: T2, hP40; test: ELISA
Protocol: as §1

Row | Binder | EC50 (hTSLP) [pM] | EC50 (hBAFF [5]) [pM] | EC50 (hP40 [6]) [pM] | further results
1 | B1 | – | – | – | EC50 (CEA on MKN45 cells [1]): 4500 pM; EC50 (CEA on MKN45 cells [2]): 6450 pM
2 | B2 | – | – | – | EC50 (CEA on MKN45 cells [1]): 4600 pM; EC50 (CEA on MKN45 cells [2]): 5930 pM
3 | B3 | 80 | – | – | –
4 | B4 | 179000 | – | – | –
5 | B5 | 250 | – | – | –
6 | B6 | – | 356 | 84 | Kd (hBAFF [3]): 499 pM; koff (hBAFF [3]): 0.000169 s⁻¹; kon (hBAFF [3]): 338000 M⁻¹ s⁻¹; Kd (hP40 [4]): 34.9 pM; koff (hP40 [4]): 4.81e-05 s⁻¹; kon (hP40 [4]): 1.38e+06 M⁻¹ s⁻¹
7 | B7 | – | 469 | 56.7 | –
8 | B8 | – | 413 | 224 | –
9 | B9 | – | 506 | 44.3 | –
